Literature values in PMC3930863.

Experiments:
[1] = biological target: InlC (Listeria monocytogenes) (UniProt P71451); test: isothermal titration calorimetry
N-WASP (Homo sapiens) = test: isothermal titration calorimetry

Chain of UniProt P71451 (P71451 35-297): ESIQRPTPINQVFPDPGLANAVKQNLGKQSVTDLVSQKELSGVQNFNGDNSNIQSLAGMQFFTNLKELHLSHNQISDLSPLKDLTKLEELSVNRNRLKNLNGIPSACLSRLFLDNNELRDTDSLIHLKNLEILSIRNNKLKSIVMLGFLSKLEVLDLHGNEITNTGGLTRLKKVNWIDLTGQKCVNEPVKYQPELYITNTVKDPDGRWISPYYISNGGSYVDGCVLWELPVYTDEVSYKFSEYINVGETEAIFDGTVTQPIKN

**Q.** What does the source list for Tuba SH3-6 (from UniProt Q6XZF7)?
**A.** Kd [1]: 5.4 µM; Kd (N-WASP (Homo sapiens)): 46.5 µM
